Source: article PMC12717047 (Nature Communications, 2025)

Legend:
Experiment in all cases: flow cytometry on cells
[1] = molecular target: T1, KRAS^WT p7 peptide presented on HLA-A*03 (p7^WT/A*03) (Homo sapiens, HLA-A*03:01, strain, biotin on the AviTag (BirA co-expressed))
T1 chain 1: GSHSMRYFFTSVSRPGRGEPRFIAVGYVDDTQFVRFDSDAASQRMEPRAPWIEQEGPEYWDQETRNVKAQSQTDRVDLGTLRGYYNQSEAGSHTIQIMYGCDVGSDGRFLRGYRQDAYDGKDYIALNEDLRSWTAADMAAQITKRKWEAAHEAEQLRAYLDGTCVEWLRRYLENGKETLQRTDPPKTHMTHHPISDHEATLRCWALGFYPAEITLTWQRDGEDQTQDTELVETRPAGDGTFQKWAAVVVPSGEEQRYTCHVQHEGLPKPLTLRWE
T1 chain 2: not shown
T1 chain 3: VVVGAGGVGK

[2] = molecular target: KRAS^WT p7 peptide presented on HLA-A*11 (p7^WT/A*11) (Homo sapiens, HLA-A*11:01, strain, biotin on the AviTag (BirA co-expressed))
[3] = molecular target: T2, KRAS^WT p5 peptide presented on HLA-A*02 (p5^WT/A*02) (Homo sapiens, HLA-A*02:01, strain, biotin on the AviTag (BirA co-expressed))
T2 chain 1: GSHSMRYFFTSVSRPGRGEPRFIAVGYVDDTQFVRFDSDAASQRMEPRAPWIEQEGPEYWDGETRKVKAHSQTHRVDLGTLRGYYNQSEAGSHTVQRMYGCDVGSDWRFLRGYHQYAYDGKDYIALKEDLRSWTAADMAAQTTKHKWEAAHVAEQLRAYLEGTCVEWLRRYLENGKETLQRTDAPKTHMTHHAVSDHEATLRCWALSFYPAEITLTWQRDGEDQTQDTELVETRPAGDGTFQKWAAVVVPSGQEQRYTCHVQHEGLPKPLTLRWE
T2 chain 2: not shown
T2 chain 3: KLVVVGAGGV

Measured: binding result

B1: yeast-displayed scFv R302 (scFv, V domains shown)
VH: EVQLLESGGGVVQPGRSLRLSCAASGFTFSSYGMHWVRQAPGKGLEWVAVISYDGSNKYYADSVKGRFTISRDNSKNTLYLQMNSLRAEDTAVYYCLYGGNSYGMDVWGQGTMVTVFN
VL: DIVMTQSPATLSLSPGERATLSCRASQSLSSSFLAWYQQKPGQAPRLLIYGASSRATGIPDRFSGSGSGTDFTLTISRLEPEDFAVYYCQQSESALTFGGGTKVEIK
no binding: all assays above
